Positions count from the first letter of the chain named.
B1: cynomolgus monkey IL-13 (NHP IL-13), recombinant (ligand)
chain: SPVPPSTALKELIEELVNITQNQKAPLCNGSMVWSINLTAGVYCAALESLINVSGCSAIEKTQRMLNGFCPHKVSAGQFSSLRVRDTKIEVAQFVKDLLVHLKKLFREGQFN
notes: also called non-human primate IL-13; cynomolgus IL-13
B2: soluble human IL-13 receptor alpha2 with a human IgG1 Fc tail (sIL13Rα2-Fc) (Fc fusion, UniProt Q14627 27-343, looked up, not shown: a dimerising Fc or GST)
chain: DTEIKVNPPQDFEIVDPGYLGYLYLQWQPPLSLDHFKECTVEYELKYRNIGSETWKTIITKNLHYKDGFDLNKGIEAKIHTLLPWQCTNGSEVQSSWAETTYWISPQGIPETKVQDMDCVYYNWQYLLCSWKPGIGVLLDTNYNLFYWYEGLDHALQCVDYIKADGQNIGCRFPYLEASDYKDFYICVNGSSENKPIRSSYFTFQLQNIVKPLPPVYLTFTRESSCEIKLKWSIPLGPIPARCFDYEIEIREDDTTLVTATVENETYTLKTTNETRQLCFVVRSKVNIYCSDDGIWSEWSDKQCWEGEDLSKKTLLR
B3: mouse monoclonal antibody C65 (antibody, V domains shown)
VH: QVQLKESGPGLVAPSQSLSITCTVSGFSLTGYGVNWVRQPPGKGLEWLGIIWGDGSTDYNSALKSRLIINKDNSKSQVFLKMNSLQTDDTARYFCARDKTFYYDGFYRGRMDYWGQGTSVTVSS
VL: DVQMIQSPSSLSASLGDIVTMTCQASQGTSINLNWFQQKPGKAPKLLIFGASNLEDGVPSRFSGSRYGTNFTLTISSLEDEDMATYFCLQHSYLPWTFGGGTKLEIK
B4: humanized MJ 2-7 V2.11 IgG1 with a mutated CH2 domain (antibody, V domains shown)
VH: EVQLVESGGGLVQPGGSLRLSCAASGFNIKDTYIHWVRQAPGKGLEWIGRIDPANDNIKYDPKFQGRFTISADNAKNSAYLQMNSLRAEDTAVYYCARSEENWYDFFDYWGQGTLVTVSS
VL: DIQMTQSPSSLSASVGDRVTITCRSSQSIVHSNGNTYLEWYQQKPGKAPKLLIYKVSNRFSGVPSRFSGSGSGTDFTLTISSLQPEDFATYYCFQGSHIPYTFGGGTKVEIKR
notes: 'QSΓVΉS' read as QSIVHS; also called huMJ 2-7 V2.11; hMJ2-7 V2-11
B5: humanized MJ 2-7 V2 (hMJ 2-7 VH V2 with hMJ 2-7 VL V2) (antibody, human IgG1, V domains shown)
VH: B4 VH with I48V, G49A, A72R, A79L
VL: B4 VL
B6: mouse monoclonal antibody MJ 2-7 (antibody, mouse IgG1, V domains shown)
VH: EVQLQQSGAELVKPGASVKLSCTGSGFNIKDTYIHWVKQRPEQGLEWIGRIDPANDNIKYDPKFQGKATITADTSSNTAYLQLNSLTSEDTAVYYCARSEENWYDFFDYWGQGTTLTVSS
VL: DVLMTQTPLSLPVSLGDQASISCRSSQSIVHSNGNTYLEWYLQKPGQSPKLLIYKVSNRFSGVPDRFSGSGSGTDFTLKISRVEAEDLGVYYCFQGSHIPYTFGGGTKLEIK

Experiments:
[1] = biological target: B2; assay: not described
[2] = biological target: native human IL-13 (crude preparation from activated human cord blood Th2 cells) (human, UniProt P35225 34-146); assay: cell-based or functional assay
native human IL-13 (crude preparation from activated human cord blood Th2 cells), sequence (P35225 other isoform, or with tags, fused parts or gaps): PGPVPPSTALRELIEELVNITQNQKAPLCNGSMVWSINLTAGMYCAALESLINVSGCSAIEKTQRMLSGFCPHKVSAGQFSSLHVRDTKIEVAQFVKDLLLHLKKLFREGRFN

[3] = biological target: B1; assay: cell-based or functional assay
[4] = biological target: B1; assay: SPR (BIACORE), Kd = kd / ka
[5] = biological target: B1; assay: SPR (BIACORE), antibody captured on goat anti-human IgG Fc, NHP-IL-13 0.09-600 nM, 1:1 model, 22.5 C

Binder: B1
- binding result [1]: binds

Binder: B2
- IC50, STAT6 phosphorylation in HT-29 cells (0.3 ng/ml native human IL-13) [2]: 330 pM

Binder: B3
- STAT6 phosphorylation in HT-29 cells (0.3 ng/ml native human IL-13) [2]: ~20 fold less active
- monocyte CD23 expression (3 ng/ml NHP IL-13) [3]: ~20 fold less active than MJ2-7 and sIL-13Rα2-Fc

Binder: B4
- Kd [4]: 43 pM
- koff [5]: 0.000889 s⁻¹
- kon [5]: 2.05e+07 M⁻¹ s⁻¹
- IC50, STAT6 phosphorylation in HT-29 cells (0.3 ng/ml native human IL-13) [2]: 520 pM

Binder: B5
- concentration for half-maximal inhibition of native human IL-13 bioactivity, against murine MJ2-7 [2]: ~110 fold greater than murine MJ2-7

Binder: B6
- IC50, STAT6 phosphorylation in HT-29 cells (0.3 ng/ml native human IL-13) [2]: 480 pM
- IC50, inhibition of STAT6 phosphorylation (native human IL-13 at 1 ng/ml) [2]: ~293 pM
- IC50, tenascin C production by BEAS-2B cells (3 ng/ml native human IL-13) [2]: ~100 pM
- IC50, inhibition of CD23 expression (non-human primate IL-13 at 1 ng/ml) [3]: ~242 pM
